According to the supplement of paper PMC7877785:
± gives the uncertainty stated by the source.

Assay: self-splicing fitness, log relative to wild type (ln ratio); higher = more splicing; Tetrahymena group I intron in knt gene, E. coli kanamycin selection, DiMSum; sequences stand for … in CUCUCU…GGAGGGAAAAGUUAUCAGGCAUGCACCUGGUAGCUAGUCUUUAAACCAAUAGAUUGCAUCGGUUUAAAAGGCAAGACCGUCAAAUUGCGGGAAAGGGGUCAACAGCCGUUCAGUACCAAGUCUCAGGGGAAACUUUGAGAUGGCCUUGCAAAGGGUAUGGUAAUAAGCUGACGGACAUGGUCCUAACCACGCAGCCAAGUCCUAAGUCAACAGAUCUUCUGUUGAUAUGGAUGCAGUUCACAGACUAAAUGUCGGUCGGGGAAGAUGUAUUCUUCUCAUAAGAUAUAGUCGGACCUCUCCUUAAUGGGAGCUAGCGGAUGAAGUGAUGCAACACUGGAGCCGCUGGGAACUAAUUUGUAUGCGAAAGUAUAUUGAUUAGUUUUGGAGUACUCGUGGUCG
Method in brief: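 Fitness was computed with DiMSum as the error-weighted combination of replicate fold changes, kanamycin versus none, each normalised to wild type. The library randomised all eight intron nucleotides of the P1ex region, with the intron placed in the knt kanamycin-resistance gene on pET-22b(+) in E. coli BL21(DE3). Six replicate transformations were grown overnight at 37°C or 30°C on LB agar with or without 25 μg/mL kanamycin, plus 100 μg/mL carbenicillin, 50 μM IPTG and 0.2% rhamnose. Pooled colonies were amplicon-sequenced on an Illumina HiSeq 2500.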

Sequence: ACGAAGCAAUAUUACGCCGC
- self-splicing fitness (ln) (30 °C): -3.56 ± 0.21
- self-splicing fitness (ln) (37 °C): -2.02 ± 0.24

Sequence: AUUCAGCAAUAUUACGCCGG
- self-splicing fitness (ln) (30 °C): -1.07 ± 0.13
- self-splicing fitness (ln) (37 °C): -0.848 ± 0.19

Sequence: GCUGAGCAAUAUUACGUGGG
- self-splicing fitness (ln) (30 °C): -2.02 ± 0.16
- self-splicing fitness (ln) (37 °C): -2.36 ± 0.26

Sequence: GCGGAGCAAUAUUACGUCCA
- self-splicing fitness (ln) (30 °C): -2.88 ± 0.33
- self-splicing fitness (ln) (37 °C): -0.822 ± 0.32

Sequence: GUUGAGCAAUAUUACGCCUC
- self-splicing fitness (ln) (30 °C): -2.09 ± 0.39

Sequence: AUGUAGCAAUAUUACGAUCG
- self-splicing fitness (ln) (30 °C): -2.2 ± 0.15
- self-splicing fitness (ln) (37 °C): -1.12 ± 0.2

Sequence: AGUCAGCAAUAUUACGCUAA
- self-splicing fitness (ln) (30 °C): -0.794 ± 0.083
- self-splicing fitness (ln) (37 °C): -0.99 ± 0.083

Sequence: AAACAGCAAUAUUACGCUUG
- self-splicing fitness (ln) (30 °C): -1.9 ± 0.096
- self-splicing fitness (ln) (37 °C): -0.605 ± 0.098

Sequence: ACUGAGCAAUAUUACGCCUC
- self-splicing fitness (ln) (30 °C): -2.32 ± 0.31

Sequence: UGUGAGCAAUAUUACGAAGU
- self-splicing fitness (ln) (30 °C): -1.67 ± 0.32

Sequence: GAAGAGCAAUAUUACGAAUC
- self-splicing fitness (ln) (30 °C): -3.48 ± 0.22
- self-splicing fitness (ln) (37 °C): -1.91 ± 0.15

Sequence: UCAGAGCAAUAUUACGUCGA
- self-splicing fitness (ln) (30 °C): -1.11 ± 0.072
- self-splicing fitness (ln) (37 °C): -0.44 ± 0.11

Sequence: GCAUAGCAAUAUUACGAGAC
- self-splicing fitness (ln) (30 °C): -2.7 ± 0.32
- self-splicing fitness (ln) (37 °C): -1.59 ± 0.23

Sequence: GGACAGCAAUAUUACGCAAA
- self-splicing fitness (ln) (30 °C): -1.19 ± 0.13
- self-splicing fitness (ln) (37 °C): -0.67 ± 0.12

Sequence: UUAAAGCAAUAUUACGGUGA
- self-splicing fitness (ln) (30 °C): -0.488 ± 0.097
- self-splicing fitness (ln) (37 °C): 0.559 ± 0.13

Sequence: AGCGAGCAAUAUUACGAAGC
- self-splicing fitness (ln) (30 °C): -3.45 ± 0.43
- self-splicing fitness (ln) (37 °C): -2.17 ± 0.25

Sequence: UGGUAGCAAUAUUACGUGCU
- self-splicing fitness (ln) (30 °C): -2 ± 0.13
- self-splicing fitness (ln) (37 °C): -1.18 ± 0.16

Sequence: CUCUAGCAAUAUUACGCAGA
- self-splicing fitness (ln) (30 °C): -4.08 ± 0.31
- self-splicing fitness (ln) (37 °C): -3.59 ± 0.22

Sequence: UAUUAGCAAUAUUACGUGUC
- self-splicing fitness (ln) (30 °C): -3.34 ± 0.39

Sequence: GCAAAGCAAUAUUACGUAGG
- self-splicing fitness (ln) (30 °C): -1.52 ± 0.05
- self-splicing fitness (ln) (37 °C): -0.897 ± 0.074

Sequence: AUCGAGCAAUAUUACGACGG
- self-splicing fitness (ln) (30 °C): -3.75 ± 0.44
- self-splicing fitness (ln) (37 °C): -1.7 ± 0.33

Sequence: UAAUAGCAAUAUUACGUGCC
- self-splicing fitness (ln) (30 °C): -3.27 ± 0.43
- self-splicing fitness (ln) (37 °C): -1.47 ± 0.31

Sequence: CCCAAGCAAUAUUACGUUAA
- self-splicing fitness (ln) (30 °C): -3.68 ± 0.17
- self-splicing fitness (ln) (37 °C): -2.62 ± 0.14

Sequence: AAUCAGCAAUAUUACGUAUA
- self-splicing fitness (ln) (30 °C): -0.574 ± 0.066
- self-splicing fitness (ln) (37 °C): 0.0946 ± 0.087

Sequence: UAUCAGCAAUAUUACGGCCC
- self-splicing fitness (ln) (30 °C): -2.13 ± 0.28
- self-splicing fitness (ln) (37 °C): -1.05 ± 0.39

Sequence: UCACAGCAAUAUUACGCUAA
- self-splicing fitness (ln) (30 °C): -2.39 ± 0.12
- self-splicing fitness (ln) (37 °C): -2.27 ± 0.18

Sequence: AGCUAGCAAUAUUACGUAGG
- self-splicing fitness (ln) (30 °C): -3.29 ± 0.13
- self-splicing fitness (ln) (37 °C): -1.27 ± 0.13

Sequence: GGUUAGCAAUAUUACGCUAU
- self-splicing fitness (ln) (30 °C): -4.15 ± 0.46
- self-splicing fitness (ln) (37 °C): -2.72 ± 0.34

Sequence: UCGCAGCAAUAUUACGGUAG
- self-splicing fitness (ln) (30 °C): -2.49 ± 0.086
- self-splicing fitness (ln) (37 °C): -0.887 ± 0.086

Sequence: CCUGAGCAAUAUUACGGACA
- self-splicing fitness (ln) (30 °C): -3.69 ± 0.28
- self-splicing fitness (ln) (37 °C): -1.64 ± 0.18

Sequence: UACGAGCAAUAUUACGGAAC
- self-splicing fitness (ln) (30 °C): -4.04 ± 0.42
- self-splicing fitness (ln) (37 °C): -3.02 ± 0.35

Sequence: GCCAAGCAAUAUUACGGUAU
- self-splicing fitness (ln) (30 °C): -1.62 ± 0.069
- self-splicing fitness (ln) (37 °C): 0.416 ± 0.076

Sequence: UGGUAGCAAUAUUACGAGUA
- self-splicing fitness (ln) (30 °C): -0.457 ± 0.19
- self-splicing fitness (ln) (37 °C): -0.963 ± 0.2

Sequence: UAUCAGCAAUAUUACGCCCA
- self-splicing fitness (ln) (30 °C): 0.297 ± 0.18
- self-splicing fitness (ln) (37 °C): 0.008 ± 0.18

Sequence: UUGGAGCAAUAUUACGCAGC
- self-splicing fitness (ln) (30 °C): -3.49 ± 0.49
- self-splicing fitness (ln) (37 °C): -1.51 ± 0.36

Sequence: UCUAAGCAAUAUUACGCCCA
- self-splicing fitness (ln) (30 °C): -1.48 ± 0.15
- self-splicing fitness (ln) (37 °C): -0.486 ± 0.17

Sequence: AGCCAGCAAUAUUACGUCCG
- self-splicing fitness (ln) (30 °C): -3.12 ± 0.24
- self-splicing fitness (ln) (37 °C): -1.71 ± 0.29

Sequence: GAUAAGCAAUAUUACGGGGC
- self-splicing fitness (ln) (30 °C): -2.96 ± 0.25
- self-splicing fitness (ln) (37 °C): -1.62 ± 0.18

Sequence: UCAAAGCAAUAUUACGCAUU
- self-splicing fitness (ln) (30 °C): -3.2 ± 0.4
- self-splicing fitness (ln) (37 °C): -3.34 ± 0.37

Sequence: UCCGAGCAAUAUUACGGCGA
- self-splicing fitness (ln) (30 °C): -0.0162 ± 0.1
- self-splicing fitness (ln) (37 °C): -0.0341 ± 0.12

Sequence: GGCAAGCAAUAUUACGAUUG
- self-splicing fitness (ln) (30 °C): -3.03 ± 0.19
- self-splicing fitness (ln) (37 °C): -1.64 ± 0.16

Sequence: UCUGAGCAAUAUUACGAAGG
- self-splicing fitness (ln) (30 °C): -3.05 ± 0.21
- self-splicing fitness (ln) (37 °C): -0.953 ± 0.15

Sequence: GCAGAGCAAUAUUACGAACA
- self-splicing fitness (ln) (30 °C): -3.11 ± 0.4

Sequence: UUCGAGCAAUAUUACGGGCG
- self-splicing fitness (ln) (30 °C): -2.45 ± 0.2
- self-splicing fitness (ln) (37 °C): -1.01 ± 0.18

Sequence: UAGGAGCAAUAUUACGUUAC
- self-splicing fitness (ln) (37 °C): -2.08 ± 0.32

Sequence: CCAUAGCAAUAUUACGCUCC
- self-splicing fitness (ln) (30 °C): -2.97 ± 0.49

Sequence: AUGGAGCAAUAUUACGUAUG
- self-splicing fitness (ln) (30 °C): -4.28 ± 0.46
- self-splicing fitness (ln) (37 °C): -3.19 ± 0.37

Sequence: UAAAAGCAAUAUUACGCAGG
- self-splicing fitness (ln) (30 °C): -1.55 ± 0.12
- self-splicing fitness (ln) (37 °C): -1.2 ± 0.11

Sequence: CAUGAGCAAUAUUACGCAAC
- self-splicing fitness (ln) (30 °C): -1.07 ± 0.29
- self-splicing fitness (ln) (37 °C): -1.69 ± 0.43

Sequence: GGUAAGCAAUAUUACGUAUA
- self-splicing fitness (ln) (30 °C): -1.77 ± 0.21
- self-splicing fitness (ln) (37 °C): -1.68 ± 0.26
